The source of these data is patent US20110200528A1 (GOVERNMENT OF THE UNITED STATES OF AMERICA, published 2011).

Assay [1] has as its target aminopeptidase N isoform CD13 (APN/CD13) on HT-1080 human fibrosarcoma cells (human) (UniProt P15144). Briefly: flow cytometry on HT-1080 cells.
Assay [2] has the same target. The experiment in a line: flow cytometry on CD13-positive HT-1080 cells; reference: liposome with a linear peptide. A general note: In flow cytometry, cells or beads pass a laser one at a time.
Assay [3] deals with T1, aminopeptidase N isoform CD13 (APN/CD13) on HT-1080 human fibrosarcoma cells (human, UniProt P15144 2-967).
T1 construct: whole, on cells; also called CD13/APN marker
Briefly: flow cytometry on CD13-positive HT-1080 cells. The method, then: To determine the half maximal effective concentration (EC₅₀) of cK(OG)NGRE (SEQ ID NO:2) and low temperature sensitive liposomes targeted with 5 mol % DSPE-PEG-cNGR, flow cytometry was performed according to standard procedures with HT-1080 cells. Approximately 94% of the HT-1080 cells were positive for the WM15 antibody indicating the presence of CD13 on these cells.

OG = Oregon Green 488 (6-isomer carboxylic acid) on Lys side chain

T1 sequence (P15144 2-967): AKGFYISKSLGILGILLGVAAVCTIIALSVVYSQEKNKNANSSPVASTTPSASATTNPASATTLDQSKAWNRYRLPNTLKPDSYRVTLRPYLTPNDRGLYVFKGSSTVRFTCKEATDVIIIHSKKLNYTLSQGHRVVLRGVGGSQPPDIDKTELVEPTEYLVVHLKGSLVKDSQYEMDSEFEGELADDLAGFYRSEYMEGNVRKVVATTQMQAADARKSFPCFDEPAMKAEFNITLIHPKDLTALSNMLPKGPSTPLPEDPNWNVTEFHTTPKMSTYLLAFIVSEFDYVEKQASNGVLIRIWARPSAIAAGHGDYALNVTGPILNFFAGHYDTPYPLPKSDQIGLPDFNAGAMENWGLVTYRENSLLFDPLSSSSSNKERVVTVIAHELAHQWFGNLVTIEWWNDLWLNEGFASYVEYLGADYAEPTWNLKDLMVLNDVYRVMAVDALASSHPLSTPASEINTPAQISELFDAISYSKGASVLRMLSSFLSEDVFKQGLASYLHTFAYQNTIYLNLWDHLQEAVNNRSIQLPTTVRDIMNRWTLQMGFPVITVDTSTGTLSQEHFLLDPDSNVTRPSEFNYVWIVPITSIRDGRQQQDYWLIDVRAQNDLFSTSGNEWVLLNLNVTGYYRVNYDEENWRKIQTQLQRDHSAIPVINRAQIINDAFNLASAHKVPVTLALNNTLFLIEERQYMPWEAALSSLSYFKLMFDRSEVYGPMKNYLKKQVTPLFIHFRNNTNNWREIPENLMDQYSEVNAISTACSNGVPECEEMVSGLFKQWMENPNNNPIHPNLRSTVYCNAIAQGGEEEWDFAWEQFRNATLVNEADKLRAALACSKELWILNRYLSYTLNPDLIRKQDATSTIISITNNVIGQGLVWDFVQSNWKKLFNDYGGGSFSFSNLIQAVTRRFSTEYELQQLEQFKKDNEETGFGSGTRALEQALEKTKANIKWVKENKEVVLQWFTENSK
Sequence of aminopeptidase N isoform CD13 (APN/CD13) on HT-1080 human fibrosarcoma cells (human) (P15144 2-967): as above

In the case of “Anti-CD13 monoclonal antibody (WM15, Alexa Fluor 488-conjugated)”, the percent of cells positive in assay [1] worked out at 94%.

B1: low temperature sensitive liposomes targeted with 5 mol % DSPE-PEG-cNGR (peptide)
peptide: KNGRE
modifications: cyclized cKNGRE; conjugated to DSPE-PEG2000CH2COOH (DSPE-PEG-cNGR conjugate 7) and built into a liposome (DPPC:MSPC:DSPE-PEG-cNGR 86.3:9.7:5)
In assay [2], B1 gave a fold lower binding concentration against the liposome with a linear peptide of 3.5 fold.
A word on the EC50: it is the concentration that produces a half-maximal response. High values mean a less potent agent, low ones a more potent agent. As to cyclo(K(OG)NGRE) (also: Glu side chain coupled to Rink amide resin (side-chain amide), also called compound 6; NGR-OG agent) [cyclic cK(OG)NGRE (SEQ ID NO:2)], the response in assay [3] was half-maximal at 61 µM (EC50).

B2: linear form of an NGR-containing peptide (SEQ ID NO:4) (peptide)
peptide: KNGRE
notes: also called linear NGR peptide; free linear NGR peptide
B2: the EC50 in assay [3] worked out at 220 µM.
